Literature values as cited in article PMC6423427.

Target: BiP (Homo sapiens) (UniProt P11021)
Chain of UniProt P11021 (P11021 19-654): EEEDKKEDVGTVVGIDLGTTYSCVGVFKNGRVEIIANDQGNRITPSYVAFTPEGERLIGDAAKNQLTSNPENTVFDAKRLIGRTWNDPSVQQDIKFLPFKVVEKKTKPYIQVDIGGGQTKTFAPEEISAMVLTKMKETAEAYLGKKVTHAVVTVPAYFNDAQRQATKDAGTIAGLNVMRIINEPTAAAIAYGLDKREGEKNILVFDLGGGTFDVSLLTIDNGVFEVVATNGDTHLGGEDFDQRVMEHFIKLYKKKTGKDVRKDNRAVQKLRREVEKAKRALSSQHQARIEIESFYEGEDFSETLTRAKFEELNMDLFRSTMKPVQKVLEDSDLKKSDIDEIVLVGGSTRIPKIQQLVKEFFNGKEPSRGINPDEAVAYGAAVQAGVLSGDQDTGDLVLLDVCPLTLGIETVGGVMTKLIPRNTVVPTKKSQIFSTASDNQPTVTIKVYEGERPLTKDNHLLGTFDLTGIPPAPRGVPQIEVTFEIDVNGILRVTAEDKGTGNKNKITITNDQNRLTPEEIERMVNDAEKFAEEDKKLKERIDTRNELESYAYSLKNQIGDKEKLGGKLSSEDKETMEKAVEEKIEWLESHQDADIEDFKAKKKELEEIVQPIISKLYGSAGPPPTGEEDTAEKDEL

Kd: 1500 nM
Substance: IRE1 LD (from UniProt O75460)
